According to patent US12673971B2, “Amyloid-β aggregation inhibitor, pharmaceutical composition foramyloid-β aggregation disease, and use application of same” (O-FORCE CO., LTD, priority 2020, dated 2026):

How the values were obtained:
Aβ25-35 aggregates = biological target: T1, Aβ25-35 aggregates (Homo sapiens, UniProt P05067); test: Dissociation of pre-formed Aβ25-35 aggregates (ThT fluorescence); type: biochemical; conditions: 40 μL of 10 mmol/L peptide added to 4000 μL reaction solution with aggregates of 0.1 mM Aβ25-35 (24 h, 37° C.); 4 hr vs 0 hr, FIG. 7
T1 construct: The Aβ25-35 is a peptide constituted by 11 amino acid residues consisting of the 25th to 35th amino acid residues
Protocol: A reaction solution with the following composition was prepared and incubated at 37° C. for 24 hours to form aggregates of Aβ25-35. After incubation, the fluorescence intensities of the reaction solution with the following composition to which Aβ25-35 was added and a reaction solution to which water was added instead of Aβ25-35 were measured as in Example 1.
Then, 40 μL of 10 mmol/L Peptide 1 or Peptide 2 was added to 4000 μL of the reaction solution in which the aggregates were formed (0 hr), the mixture was incubated at 37° C., and the change in fluorescence intensity over time was measured (n=3). As a control, a reaction solution to which water was added instead of Peptide 1 and Peptide 2 was also measured at 0 hr in the same way. Then, the percentage (%) of decrease in fluorescence intensity after 4 hr was obtained from the fluorescence intensity at 0 hr.

Aβ25-35 [1] = biological target: T2, Aβ25-35 (Homo sapiens, UniProt P05067); test: Concentration assay (ThT fluorescence, varied final peptide concentration); type: biochemical; conditions: for fluorescence intensity compared with the negative control: 37° C.
T2 construct: The Aβ25-35 is a peptide constituted by 11 amino acid residues consisting of the 25th to 35th amino acid residues
Protocol: The concentrations of Peptide 1 (GSGNR (SEQ ID NO: 1)) and Peptide 2 (GSGFK (SEQ ID NO: 2)) with respect to Aβ25-35 were checked. Unless otherwise indicated, measurements were performed according to (2) above.
First, as for Peptide 2 (GSGFK (SEQ ID NO: 2)), 200 μL of mixed solution with the composition shown in Table 2 below was added per well, 10 μL of 2 mmol/L ThT was further added to the well immediately before measurement, and this reaction solution was incubated at 37° C. The change in fluorescence intensity 4 hours after the start of measurement was measured using the above-mentioned measurement device (n=3). Furthermore, reaction solutions with the following composition but with different final concentrations of Peptide 2 were also measured in the same way. As a negative control, a reaction solution with the following composition to which neither Peptides 1 nor 2 was added was also measured in the same way.
Next, as for Peptide 1 (GSGNR (SEQ ID NO: 1)), 200 μL of mixed solution with the composition shown in Table 2 above was added per well, 10 μL of 2 mmol/L ThT was further added to the well immediately before measurement, and this reaction solution was incubated at 37° C. The change in fluorescence intensity 8 hours after the start of measurement was measured using the above-mentioned measurement device (n=6). Furthermore, reaction solutions with the composition above but with different final concentrations of Peptide 1 were also measured in the same way. As a negative control, a reaction solution with the composition above to which neither Peptides 1 nor 2 was added was also measured in the same way.

Aβ25-35 [2] = biological target: T2, Aβ25-35; test: Aggregation inhibition assay (thioflavin T fluorescence); type: biochemical; conditions: 0.1 mM peptide, 0.1 mM Aβ25-35, 0.1 mM ThT, Tris-HCl pH 7.5, 37° C., FIG. 1; for fluorescence intensity of the reaction solution after 8 and 24 hours: vs negative control; for fluorescence intensity of the reaction solution 4 hours after incubation: vs negative control (Aβ25-35 only)
Text: An Aβ-derived fragment peptide was used for aggregation of Aβ. Aβ25-35, which has high aggregability, was selected as the fragment peptide. The Aβ25-35 is a peptide constituted by 11 amino acid residues consisting of the 25th to 35th amino acid residues in the full length sequence of human-derived Aβ (GSNKGAIIGLM (SEQ ID NO: 4), hereinafter also referred to as Ab25-35).
The fluorescent dye thioflavin T (ThT) binds to Ab aggregates and emits strong fluorescence upon binding, and thus the increase or inhibition of aggregation can be determined by measuring the fluorescence intensity. Thus, the inhibition of aggregation of Aβ25-35 by Peptide 1 (GSGNR (SEQ ID NO: 1)) and Peptide 2 (GSGFK (SEQ ID NO: 2)) was checked using ThT.
Specifically, a reaction solution with the following composition was prepared and dispensed into wells such that the amount of the reaction solution per well was 300 μL, and incubated at 37° C., and the change in fluorescence intensity over time was measured using a measurement device (product name Cytation5, manufactured by BioTek) (n=3). The measurement wavelengths were set such that the excitation wavelength (ex) was 444 nm and the emission wavelength (em) was 480 nm. As a control, a reaction solution to which water was added instead of Peptide 1 and Peptide 2 was also measured in the same way.

C57BL/6 mice [3] = test: Y-maze (short-term memory assessment) test; type: in vivo; conditions: 2 μL of 0.5 μg/μL Aβ25-35 and 2 μL of 0.25 μg/μL Peptide 2 into hippocampal CA1; days 11, 27 and 39; vs negative control group (Aβ25-35 only), FIG. 4
Protocol: In this example, 2 μL of 0.5 μg/μL Aβ25-35 and 2 μL of 0.25 μg/μL Peptide 2 were directly administered using a micro syringe to the CA1 area of the hippocampus of the brain of the administration group of C57BL/6 mice (7 to 13 months old mice) (n=3). In a similar manner, 2 μL of 0.5 μg/μL Aβ25-35 was directly administered using a micro syringe to the CA1 area of the hippocampus of the brain of the negative control group of C57BL/6 mice (n=3). Neither 2 μL of Aβ25-35 nor Peptide 2 was administered to the positive control group of C57BL/6 mice (n=3). Each group was then given a Y-maze (short-term memory assessment) test on days 11, 27, and 39 after administration, and an object recognition test over 3 days starting from day 49. • Administration group (7 months old): Aβ25-35(+)/GSGFK(+) • Negative control group (7 months old): Aβ25-35(+)/GSGFK(−) • Positive control group (13 months old): Aβ25-35(−)/GSGFK(−)
The Y-maze test was conducted in a general manner under the following conditions. That is to say, mice were placed such that their noses faced the wall at an end of one particular arm among the three arms. The mice were allowed to move freely for 10 minutes, and their behavior was captured on a monitor of an analyzer (product name: Time YM1, manufactured by O'hara & Co., Ltd.) to calculate the alternation behavior rate (alternation behavior (%)).

Aβ25-35 [4] = biological target: T2, Aβ25-35; test: ThT fluorescence of the solutions administered to the mouse groups; type: biochemical; conditions: 0.5 μg/μL Aβ25-35 and 0.25 μg/μL Peptide 2 mixed in equal amounts, 37° C., day 11, vs Aβ25-35 solution, FIG. 3
Protocol: In parallel with the administration to the mice in each group, the fluorescence intensity was measured for the solutions administered to each group. Specifically, a mixed solution obtained by mixing 0.5 μg/μL Aβ25-35 and 0.25 μg/μL Peptide 2 in equal amounts, which was the same as that administered to the administration group, and a 0.5 μg/μL Aβ25-35 solution, which was the same as that administered to the negative control group, were each added in an amount of 100 μL per well, and 10 μL of 1 mmol/L ThT was further added to the well immediately before measurement. These reaction solutions were each reacted at 37° C., and the fluorescence intensity was measured as in Example 1 above.

C57BL/6 mice [5] = test: Object recognition test (ORT); type: in vivo; conditions: administration group Aβ25-35(+)/GSGFK(+), day 52 (test over 3 days from day 49), FIG. 6
Protocol: In this example, 2 μL of 0.5 μg/μL Aβ25-35 and 2 μL of 0.25 μg/μL Peptide 2 were directly administered using a micro syringe to the CA1 area of the hippocampus of the brain of the administration group of C57BL/6 mice (7 to 13 months old mice) (n=3). In a similar manner, 2 μL of 0.5 μg/μL Aβ25-35 was directly administered using a micro syringe to the CA1 area of the hippocampus of the brain of the negative control group of C57BL/6 mice (n=3). Neither 2 μL of Aβ25-35 nor Peptide 2 was administered to the positive control group of C57BL/6 mice (n=3). […]
The object recognition test (ORT) from day 49 was conducted as follows. […] For each group, the speed of movement of the mice in the cage was measured, as well as the percentage (%) of time they stayed in the center region of the cage (the inner region being at least 7.5 cm away from a side wall of the cage).
After one day, two identical objects were placed in the cage and the mice were allowed to explore freely for one hour (sample phase). […] Also, the approach time of the mice to each object was measured in each of the sample and test phases. The percentage of the exploration time for the object on the right side with respect to the total exploration time was then determined (100× right side exploration time/total exploration time (%)).

[6] = Peptide 1, with respect to 100 μmol/L Aβ25-35, 8 hours, FIG. 2(B)
[7] = Peptide 2, with respect to 100 μmol/L Aβ25-35, 4 hours, FIG. 2(A)

Substance	decrease in fluorescence intensity 4 hours after peptide addition to pre-formed aggregates (Aβ25-35 aggregates)	fluorescence intensity compared with the negative control (Aβ25-35 [1]; Peptide 1, 100 μmol/L Aβ25-35, PBS, 8 hours after start of measurement, FIG. 2(B))	final concentration at which aggregation was inhibited in a particularly excellent manner (Aβ25-35 [1]; [6])	final concentration at which aggregation was significantly inhibited sufficiently (Aβ25-35 [1]; [6])	fluorescence intensity of the reaction solution after 8 and 24 hours (Aβ25-35 [2])	fluorescence intensity of the reaction solution 4 hours after incubation (Aβ25-35 [2])	alternation behavior rate (short-term memory) (C57BL/6 mice [3])	fluorescence intensity of the mixed solution on day 11 (Aβ25-35 [4])	fluorescence intensity compared with the negative control (Aβ25-35 [1]; Peptide 2, 100 μmol/L Aβ25-35, PBS, 4 hours after start of measurement, FIG. 2(A))	final concentration at which aggregation was inhibited in a particularly excellent manner (Aβ25-35 [1]; [7])	final concentration at which aggregation was more effectively inhibited (Aβ25-35 [1]; [7])	final concentration at which aggregation was significantly inhibited sufficiently (Aβ25-35 [1]; [7])	percentage of exploration time for the object on the right side, test phase compared with sample phase (C57BL/6 mice [5])
GSGNR [Peptide 1]	significant decrease in fluorescence intensity	significantly reduced the fluorescence intensity	around 10 μmol/L	≥ 1 µmol/L	decreased significantly compared with the negative control after 8 and 24 hours	had increased 4 hours after incubation	–	–	–	–	–	–	–
GSGFK [Peptide 2]	significant decrease in fluorescence intensity	–	–	–	did not increase after 8 and 24 hours	slightly increased 4 hours after incubation, but it was well below the negative control	short-term memory is maintained as with the positive control group	did not show an increase in fluorescence intensity	significantly reduced the fluorescence intensity	around 10 μmol/L	≥ 10 µmol/L	≥ 5 µmol/L	significant increase in the percentage of exploration time for the object on the right side in the test phase
